In patent publication US8273357B2, “Antigen-carbohydrate conjugates” (Massachusetts Institute of Technology, priority 2004, dated 2012):

Key:
mannose receptor = target: T1, mannose receptor (Homo sapiens, UniProt P22897); conditions: cited from earlier work
T1 sequence (P22897 19-1456): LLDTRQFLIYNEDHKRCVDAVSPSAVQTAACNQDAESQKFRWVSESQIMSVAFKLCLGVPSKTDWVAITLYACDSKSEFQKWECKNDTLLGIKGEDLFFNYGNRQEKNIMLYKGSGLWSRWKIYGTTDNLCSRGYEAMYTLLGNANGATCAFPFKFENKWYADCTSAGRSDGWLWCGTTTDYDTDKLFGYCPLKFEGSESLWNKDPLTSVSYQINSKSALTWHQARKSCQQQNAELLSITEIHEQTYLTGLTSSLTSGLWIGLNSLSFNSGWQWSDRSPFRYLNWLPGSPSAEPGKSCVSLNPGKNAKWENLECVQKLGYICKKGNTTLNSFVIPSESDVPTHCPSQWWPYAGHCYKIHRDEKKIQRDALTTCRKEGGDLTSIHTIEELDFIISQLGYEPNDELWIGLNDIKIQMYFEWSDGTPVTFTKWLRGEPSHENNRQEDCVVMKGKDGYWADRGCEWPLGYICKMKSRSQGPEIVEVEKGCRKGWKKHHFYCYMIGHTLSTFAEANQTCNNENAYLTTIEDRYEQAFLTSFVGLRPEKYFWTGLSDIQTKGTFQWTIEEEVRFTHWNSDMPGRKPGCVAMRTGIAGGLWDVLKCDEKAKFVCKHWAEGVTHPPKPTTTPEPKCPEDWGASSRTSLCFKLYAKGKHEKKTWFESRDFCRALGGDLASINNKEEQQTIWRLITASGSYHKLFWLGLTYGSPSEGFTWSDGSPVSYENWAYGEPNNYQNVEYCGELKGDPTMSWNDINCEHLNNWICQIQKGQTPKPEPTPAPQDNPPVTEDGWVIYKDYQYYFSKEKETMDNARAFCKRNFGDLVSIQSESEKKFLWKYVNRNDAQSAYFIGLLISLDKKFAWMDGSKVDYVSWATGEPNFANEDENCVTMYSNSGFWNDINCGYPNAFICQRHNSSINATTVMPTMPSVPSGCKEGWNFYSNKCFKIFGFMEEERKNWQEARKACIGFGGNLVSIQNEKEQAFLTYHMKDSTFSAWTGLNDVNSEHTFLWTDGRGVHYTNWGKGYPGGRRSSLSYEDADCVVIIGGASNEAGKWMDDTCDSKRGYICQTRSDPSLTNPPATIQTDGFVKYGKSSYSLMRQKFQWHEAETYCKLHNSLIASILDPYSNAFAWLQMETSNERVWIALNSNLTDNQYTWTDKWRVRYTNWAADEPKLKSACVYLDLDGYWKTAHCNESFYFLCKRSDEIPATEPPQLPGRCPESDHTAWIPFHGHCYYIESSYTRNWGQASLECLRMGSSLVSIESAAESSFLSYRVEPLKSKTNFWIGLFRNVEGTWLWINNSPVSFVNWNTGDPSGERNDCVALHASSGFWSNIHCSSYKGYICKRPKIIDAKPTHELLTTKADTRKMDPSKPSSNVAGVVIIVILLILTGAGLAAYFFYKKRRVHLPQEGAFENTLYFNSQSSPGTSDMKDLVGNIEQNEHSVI

B cells and macrophages = assay: Antigen presentation with B cells and macrophages (non-dendritic cells) as antigen-presenting cells; type: cell-based, mouse; conditions: in place of purified dendritic cells
Protocol: FIGS. 4A, 4B, 4C and 4D are graphs showing that CD11c^+ dendritic cells are the main antigen presenting cells presenting 3-1-targeted antigen. […] 1.5×10^4 Splenic CD11c^+ dendritic cells purified from C57BL/6 mice and 3.0×10^4 purified OTII T cells were incubated with OVA (starting concentration 300 μg mL^−1) or (OVA)-3-1 (starting concentration 25 μg mL^−1) in graded doses for eight-four hours with [^3H]thymidine (1 μCi) added for the last twelve hours. […] Purified CD11c^+ dendritic cells and OTII T cells were incubated with (OVA)-3-1 (25 μg mL^−1)±each potential inhibitor (100 μg mL^−1). T cell proliferation was determined as for FIG. 4A. […] CD11c^+ dendritic cells and OTII T cells were incubated with OVA or (OVA)-3-1±lipopolysaccharide ([…]). Also included are all ‘non-dendritic cells’ (macrophages and B cells) obtained during the purification of the dendritic cells. T cell proliferation was determined as described in FIG. 4A. […] Supernatants from cells described in FIG. 4C were collected at forty-eight and seventy-two hours and measured for IFN-γ by ELISA; the values presented are from the seventy-two hour time point. All measurements here were performed in triplicate. […]

mBSA: BSA modified with approximately 25 mannose residues per protein molecule [reference compound]
ligand for the mannose receptor (mannose receptor): nanomolar ligand

B1: (OVA)-3-1: ovalbumin modified via SMCC with nonasaccharide 3-1, average of three saccharides per OVA (conjugate)
chain: GSIGAASMEFCFDVFKELKVHHANENIFYCPIAIMSALAMVYLGAKDSTRTQINKVVRFDKLPGFGDSIEAQCGTSVNVHSSLRDILNQITKPNDVYSFSLASRLYAEERYPILPEYLQCVKELYRGGLEPINFQTAADQARELINSWVESQTNGIIRNVLQPSSVDSQTAMVLVNAIVFKGLWEKAFKDEDTQAMPFRVTEQESKPVQMMYQIGLFRVASMASEKMKILELPFASGTMSMLVLLPDEVSGLEQLESIINFEKLTEWTSSNVMEERKIKVYLPRMKMEEKYNLTSVLMAMGITDVFSSSANLSGISSAESLKISQAVHAAHAEINEAGREVVGSAEAGVDAASVSEEFRADHPFLFCIKHIATNAVLFFGRCVSP
T cell responses with B cells and macrophages as antigen-presenting cells (B cells and macrophages): negligible
